Source: publication PMC4912689, “The Extracellular Surface of the GLP-1 Receptor Is a Molecular Trigger for Biased Agonism” (Cell, 2016)

Each binder was assayed against exendin-4, P26349 (assay: radioligand inhibition binding (competition with 125I-exendin-4(9-39))). Settings: chain shown with the change;; read off a plot.

Binder | log10 ratio
glucagon-like peptide 1 receptor (GLP-1R), wild-type, P43220 Y289A (protein) RPQGATVSLWETVQKWREYRRQCQRSLTEDPPPATDLFCNRTFDEYACWPDGEPGSFVNVSCPWYLPWASSVPQGHVYRFCTAEGLWLQKDNSSLPWRDLSECEESKRGERSSPEEQLLFLYIIYTVGYALSFSALVIASAILLGFRHLHCTRNYIHLNLFASFILRALSVFIKDAALKWMYSTAAQQHQWDGLLSYQDSLSCRLVFLLMQYCVAANYYWLLVEGVYLYTLLAFSVLSEQWIFRLYVSIGWGVPLLFVVPWGIVKALYEDEGCWTRNSNMNYWLIIRLPILFAIGVNFLIFVRVICIVVSKLKANLMCKTDIKCRLAKSTLTLIPLLGTHEVIFAFVMDEHARGTLRFIKLFTELSFTSFQGLMVAILYCFVNNEVQLEFRKSWERWRLEHLHIQRDSSMKPLKCPTSSLSSGATAGSSMYTATCQASCS | 0 ΔpKi
glucagon-like peptide 1 receptor (GLP-1R), wild-type, P43220 G377A (protein) RPQGATVSLWETVQKWREYRRQCQRSLTEDPPPATDLFCNRTFDEYACWPDGEPGSFVNVSCPWYLPWASSVPQGHVYRFCTAEGLWLQKDNSSLPWRDLSECEESKRGERSSPEEQLLFLYIIYTVGYALSFSALVIASAILLGFRHLHCTRNYIHLNLFASFILRALSVFIKDAALKWMYSTAAQQHQWDGLLSYQDSLSCRLVFLLMQYCVAANYYWLLVEGVYLYTLLAFSVLSEQWIFRLYVSIGWGVPLLFVVPWGIVKYLYEDEGCWTRNSNMNYWLIIRLPILFAIGVNFLIFVRVICIVVSKLKANLMCKTDIKCRLAKSTLTLIPLLGTHEVIFAFVMDEHARATLRFIKLFTELSFTSFQGLMVAILYCFVNNEVQLEFRKSWERWRLEHLHIQRDSSMKPLKCPTSSLSSGATAGSSMYTATCQASCS | -0.4 ΔpKi
glucagon-like peptide 1 receptor (GLP-1R), wild-type, P43220 L384A (protein) RPQGATVSLWETVQKWREYRRQCQRSLTEDPPPATDLFCNRTFDEYACWPDGEPGSFVNVSCPWYLPWASSVPQGHVYRFCTAEGLWLQKDNSSLPWRDLSECEESKRGERSSPEEQLLFLYIIYTVGYALSFSALVIASAILLGFRHLHCTRNYIHLNLFASFILRALSVFIKDAALKWMYSTAAQQHQWDGLLSYQDSLSCRLVFLLMQYCVAANYYWLLVEGVYLYTLLAFSVLSEQWIFRLYVSIGWGVPLLFVVPWGIVKYLYEDEGCWTRNSNMNYWLIIRLPILFAIGVNFLIFVRVICIVVSKLKANLMCKTDIKCRLAKSTLTLIPLLGTHEVIFAFVMDEHARGTLRFIKAFTELSFTSFQGLMVAILYCFVNNEVQLEFRKSWERWRLEHLHIQRDSSMKPLKCPTSSLSSGATAGSSMYTATCQASCS | -1.2 ΔpKi
glucagon-like peptide 1 receptor (GLP-1R), wild-type, P43220 R376A (protein) RPQGATVSLWETVQKWREYRRQCQRSLTEDPPPATDLFCNRTFDEYACWPDGEPGSFVNVSCPWYLPWASSVPQGHVYRFCTAEGLWLQKDNSSLPWRDLSECEESKRGERSSPEEQLLFLYIIYTVGYALSFSALVIASAILLGFRHLHCTRNYIHLNLFASFILRALSVFIKDAALKWMYSTAAQQHQWDGLLSYQDSLSCRLVFLLMQYCVAANYYWLLVEGVYLYTLLAFSVLSEQWIFRLYVSIGWGVPLLFVVPWGIVKYLYEDEGCWTRNSNMNYWLIIRLPILFAIGVNFLIFVRVICIVVSKLKANLMCKTDIKCRLAKSTLTLIPLLGTHEVIFAFVMDEHAAGTLRFIKLFTELSFTSFQGLMVAILYCFVNNEVQLEFRKSWERWRLEHLHIQRDSSMKPLKCPTSSLSSGATAGSSMYTATCQASCS | -0.35 ΔpKi
glucagon-like peptide 1 receptor (GLP-1R), wild-type, P43220 E373A (protein) RPQGATVSLWETVQKWREYRRQCQRSLTEDPPPATDLFCNRTFDEYACWPDGEPGSFVNVSCPWYLPWASSVPQGHVYRFCTAEGLWLQKDNSSLPWRDLSECEESKRGERSSPEEQLLFLYIIYTVGYALSFSALVIASAILLGFRHLHCTRNYIHLNLFASFILRALSVFIKDAALKWMYSTAAQQHQWDGLLSYQDSLSCRLVFLLMQYCVAANYYWLLVEGVYLYTLLAFSVLSEQWIFRLYVSIGWGVPLLFVVPWGIVKYLYEDEGCWTRNSNMNYWLIIRLPILFAIGVNFLIFVRVICIVVSKLKANLMCKTDIKCRLAKSTLTLIPLLGTHEVIFAFVMDAHARGTLRFIKLFTELSFTSFQGLMVAILYCFVNNEVQLEFRKSWERWRLEHLHIQRDSSMKPLKCPTSSLSSGATAGSSMYTATCQASCS | -1.3 ΔpKi
glucagon-like peptide 1 receptor (GLP-1R), wild-type, P43220 L379A (protein) RPQGATVSLWETVQKWREYRRQCQRSLTEDPPPATDLFCNRTFDEYACWPDGEPGSFVNVSCPWYLPWASSVPQGHVYRFCTAEGLWLQKDNSSLPWRDLSECEESKRGERSSPEEQLLFLYIIYTVGYALSFSALVIASAILLGFRHLHCTRNYIHLNLFASFILRALSVFIKDAALKWMYSTAAQQHQWDGLLSYQDSLSCRLVFLLMQYCVAANYYWLLVEGVYLYTLLAFSVLSEQWIFRLYVSIGWGVPLLFVVPWGIVKYLYEDEGCWTRNSNMNYWLIIRLPILFAIGVNFLIFVRVICIVVSKLKANLMCKTDIKCRLAKSTLTLIPLLGTHEVIFAFVMDEHARGTARFIKLFTELSFTSFQGLMVAILYCFVNNEVQLEFRKSWERWRLEHLHIQRDSSMKPLKCPTSSLSSGATAGSSMYTATCQASCS | -0.95 ΔpKi
glucagon-like peptide 1 receptor (GLP-1R), wild-type, P43220 T378A (protein) RPQGATVSLWETVQKWREYRRQCQRSLTEDPPPATDLFCNRTFDEYACWPDGEPGSFVNVSCPWYLPWASSVPQGHVYRFCTAEGLWLQKDNSSLPWRDLSECEESKRGERSSPEEQLLFLYIIYTVGYALSFSALVIASAILLGFRHLHCTRNYIHLNLFASFILRALSVFIKDAALKWMYSTAAQQHQWDGLLSYQDSLSCRLVFLLMQYCVAANYYWLLVEGVYLYTLLAFSVLSEQWIFRLYVSIGWGVPLLFVVPWGIVKYLYEDEGCWTRNSNMNYWLIIRLPILFAIGVNFLIFVRVICIVVSKLKANLMCKTDIKCRLAKSTLTLIPLLGTHEVIFAFVMDEHARGALRFIKLFTELSFTSFQGLMVAILYCFVNNEVQLEFRKSWERWRLEHLHIQRDSSMKPLKCPTSSLSSGATAGSSMYTATCQASCS | -0.5 ΔpKi
glucagon-like peptide 1 receptor (GLP-1R), wild-type, P43220 R299A (protein) RPQGATVSLWETVQKWREYRRQCQRSLTEDPPPATDLFCNRTFDEYACWPDGEPGSFVNVSCPWYLPWASSVPQGHVYRFCTAEGLWLQKDNSSLPWRDLSECEESKRGERSSPEEQLLFLYIIYTVGYALSFSALVIASAILLGFRHLHCTRNYIHLNLFASFILRALSVFIKDAALKWMYSTAAQQHQWDGLLSYQDSLSCRLVFLLMQYCVAANYYWLLVEGVYLYTLLAFSVLSEQWIFRLYVSIGWGVPLLFVVPWGIVKYLYEDEGCWTANSNMNYWLIIRLPILFAIGVNFLIFVRVICIVVSKLKANLMCKTDIKCRLAKSTLTLIPLLGTHEVIFAFVMDEHARGTLRFIKLFTELSFTSFQGLMVAILYCFVNNEVQLEFRKSWERWRLEHLHIQRDSSMKPLKCPTSSLSSGATAGSSMYTATCQASCS | -1.5 ΔpKi
glucagon-like peptide 1 receptor (GLP-1R), wild-type, P43220 W214A (protein) RPQGATVSLWETVQKWREYRRQCQRSLTEDPPPATDLFCNRTFDEYACWPDGEPGSFVNVSCPWYLPWASSVPQGHVYRFCTAEGLWLQKDNSSLPWRDLSECEESKRGERSSPEEQLLFLYIIYTVGYALSFSALVIASAILLGFRHLHCTRNYIHLNLFASFILRALSVFIKDAALKWMYSTAAQQHQADGLLSYQDSLSCRLVFLLMQYCVAANYYWLLVEGVYLYTLLAFSVLSEQWIFRLYVSIGWGVPLLFVVPWGIVKYLYEDEGCWTRNSNMNYWLIIRLPILFAIGVNFLIFVRVICIVVSKLKANLMCKTDIKCRLAKSTLTLIPLLGTHEVIFAFVMDEHARGTLRFIKLFTELSFTSFQGLMVAILYCFVNNEVQLEFRKSWERWRLEHLHIQRDSSMKPLKCPTSSLSSGATAGSSMYTATCQASCS | -0.25 ΔpKi
glucagon-like peptide 1 receptor (GLP-1R), wild-type, P43220 S301A (protein) RPQGATVSLWETVQKWREYRRQCQRSLTEDPPPATDLFCNRTFDEYACWPDGEPGSFVNVSCPWYLPWASSVPQGHVYRFCTAEGLWLQKDNSSLPWRDLSECEESKRGERSSPEEQLLFLYIIYTVGYALSFSALVIASAILLGFRHLHCTRNYIHLNLFASFILRALSVFIKDAALKWMYSTAAQQHQWDGLLSYQDSLSCRLVFLLMQYCVAANYYWLLVEGVYLYTLLAFSVLSEQWIFRLYVSIGWGVPLLFVVPWGIVKYLYEDEGCWTRNANMNYWLIIRLPILFAIGVNFLIFVRVICIVVSKLKANLMCKTDIKCRLAKSTLTLIPLLGTHEVIFAFVMDEHARGTLRFIKLFTELSFTSFQGLMVAILYCFVNNEVQLEFRKSWERWRLEHLHIQRDSSMKPLKCPTSSLSSGATAGSSMYTATCQASCS | -0.3 ΔpKi
glucagon-like peptide 1 receptor (GLP-1R), wild-type, P43220 L217A (protein) RPQGATVSLWETVQKWREYRRQCQRSLTEDPPPATDLFCNRTFDEYACWPDGEPGSFVNVSCPWYLPWASSVPQGHVYRFCTAEGLWLQKDNSSLPWRDLSECEESKRGERSSPEEQLLFLYIIYTVGYALSFSALVIASAILLGFRHLHCTRNYIHLNLFASFILRALSVFIKDAALKWMYSTAAQQHQWDGALSYQDSLSCRLVFLLMQYCVAANYYWLLVEGVYLYTLLAFSVLSEQWIFRLYVSIGWGVPLLFVVPWGIVKYLYEDEGCWTRNSNMNYWLIIRLPILFAIGVNFLIFVRVICIVVSKLKANLMCKTDIKCRLAKSTLTLIPLLGTHEVIFAFVMDEHARGTLRFIKLFTELSFTSFQGLMVAILYCFVNNEVQLEFRKSWERWRLEHLHIQRDSSMKPLKCPTSSLSSGATAGSSMYTATCQASCS | -0.3 ΔpKi
glucagon-like peptide 1 receptor (GLP-1R), wild-type, P43220 C296A (protein) RPQGATVSLWETVQKWREYRRQCQRSLTEDPPPATDLFCNRTFDEYACWPDGEPGSFVNVSCPWYLPWASSVPQGHVYRFCTAEGLWLQKDNSSLPWRDLSECEESKRGERSSPEEQLLFLYIIYTVGYALSFSALVIASAILLGFRHLHCTRNYIHLNLFASFILRALSVFIKDAALKWMYSTAAQQHQWDGLLSYQDSLSCRLVFLLMQYCVAANYYWLLVEGVYLYTLLAFSVLSEQWIFRLYVSIGWGVPLLFVVPWGIVKYLYEDEGAWTRNSNMNYWLIIRLPILFAIGVNFLIFVRVICIVVSKLKANLMCKTDIKCRLAKSTLTLIPLLGTHEVIFAFVMDEHARGTLRFIKLFTELSFTSFQGLMVAILYCFVNNEVQLEFRKSWERWRLEHLHIQRDSSMKPLKCPTSSLSSGATAGSSMYTATCQASCS | -1.8 ΔpKi
glucagon-like peptide 1 receptor (GLP-1R), wild-type, P43220 F385A (protein) RPQGATVSLWETVQKWREYRRQCQRSLTEDPPPATDLFCNRTFDEYACWPDGEPGSFVNVSCPWYLPWASSVPQGHVYRFCTAEGLWLQKDNSSLPWRDLSECEESKRGERSSPEEQLLFLYIIYTVGYALSFSALVIASAILLGFRHLHCTRNYIHLNLFASFILRALSVFIKDAALKWMYSTAAQQHQWDGLLSYQDSLSCRLVFLLMQYCVAANYYWLLVEGVYLYTLLAFSVLSEQWIFRLYVSIGWGVPLLFVVPWGIVKYLYEDEGCWTRNSNMNYWLIIRLPILFAIGVNFLIFVRVICIVVSKLKANLMCKTDIKCRLAKSTLTLIPLLGTHEVIFAFVMDEHARGTLRFIKLATELSFTSFQGLMVAILYCFVNNEVQLEFRKSWERWRLEHLHIQRDSSMKPLKCPTSSLSSGATAGSSMYTATCQASCS | -0.2 ΔpKi
